We go through six molecules from patent US20190367592A1 (AC IMMUNE, published 2019).

In general, Kd refers to a measure of binding affinity in units of concentration. In general, koff refers to a measure of how fast the partners let go of each other. As a reminder, the kon is a measure of how fast the partners come together.

The target of assay [1] is T1, recombinant human Tau monomer, 2N4R isoform (amino acids 2-441) (human, UniProt P10636-8 2-441).
T1 construct: range 2-441; N-terminal His-tag removed with TEV protease; also called monomeric Tau
T1 sequence (P10636 other isoform, or with tags, fused parts or gaps limits assumed): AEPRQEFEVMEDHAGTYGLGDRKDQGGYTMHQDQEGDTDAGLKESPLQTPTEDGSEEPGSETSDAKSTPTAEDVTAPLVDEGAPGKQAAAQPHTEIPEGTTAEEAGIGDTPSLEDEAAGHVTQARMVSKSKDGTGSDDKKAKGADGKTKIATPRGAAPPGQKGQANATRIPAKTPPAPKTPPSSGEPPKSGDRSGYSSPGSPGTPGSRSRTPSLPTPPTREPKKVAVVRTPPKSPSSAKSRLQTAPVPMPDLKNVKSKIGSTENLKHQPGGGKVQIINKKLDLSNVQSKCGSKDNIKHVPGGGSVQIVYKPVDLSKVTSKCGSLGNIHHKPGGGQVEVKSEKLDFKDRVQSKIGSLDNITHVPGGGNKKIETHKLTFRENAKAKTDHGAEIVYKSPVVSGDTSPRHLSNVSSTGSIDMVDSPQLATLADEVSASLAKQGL
Kind of assay: SPR screen, hIgG captured, Tau monomer analyte. The text has this:
Antibody 125B11-H3 was humanized onto VH3 and Vκ1 consensus frameworks. The heavy chain graft included murine residues at position 78 (Kabat numbering system). The Vκ1 graft included murine residues in framework positions 43 and 87. The light chain of 113F5-F7 was also humanized onto the Vκ1 framework, with additional murine residues at framework positions 43 and 87. Humanized variant heavy chains (125B11) and light chains (125B11 and 113F5-F7) were co-transfected in multiple combinations and purified in 96-well format as described above. Humanized variants were then screened for affinity for human Tau monomer using the Biacore human IgG capture kit, a Series S CM5 chip and a Biacore T200 instrument. Antibodies were diluted to 2 μg/ml and captured for 15 seconds at 10 μl/min. Association and dissociation of 0, 100 and 500 nM human Tau monomer in HBSP was monitored for 180s and 300s respectively at a flow rate of 40 μl/min. A 1:1 binding model was applied to the results (Table 9).
Variants hu125B11.v17 (HC3+LC1), hu125B11.v26 (HC4+LC2) and hu125B 11.v28 (HC4+LC4) were selected for high-resolution kinetic analysis based on the affinity screen (Table 10). Antibody 94B2-C1 was humanized onto VH1 and Vx2 frameworks. The heavy chain graft also included murine residues at position 28, 29, 67, 69, 71, and 73 (Kabat numbering system). The Vκ2 graft also included murine residues in framework positions 2, 36, and 46. […] Variant hu94B2.v105 (heavy chain variant 94B2.HCl, light chain variant 94B2.LC13) was selected for detailed SPR characterization (Table 11).

For assay [2], the target named is T1, recombinant human Tau monomer, 2N4R …. Briefly: SPR high-resolution kinetics, hIgG1.
Assay [3] has the same target. Kind of assay: SPR, hIgG captured, Tau monomer analyte, 1:1 fit. As for the experimental part: Affinity of selected antibodies was assessed at 25° C. using a Biacore T200 instrument, the GE Biacore human IgG capture kit and a CM5 Series S chip. The hIgG were diluted to 0.25 μg/ml in 10 mM HEPES pH7.4, 150 mM NaCl, 0.05% Tween 20 (running buffer, HBSP) and captured at a flow rate of 10 μl/min for 150 seconds. Kinetic data was collected for Human Tau monomer injected at concentrations of 0, 0.4, 1.2, 3.7, 11, 11, 33 and 100 nM in HBSP, using a flow rate of 30 μl/min, a 300 second association phase and a 600 second dissociation phase. Between cycles the surface was regenerated using two sequential 30 second injections of 3M MgCl at 10 μl/min. Data was fit to a 1:1 binding model (Table 15).
For orientation: SPR reads the build-up and loss of mass on a sensor chip optically.

Assay [4] shares this target. Kind of assay: SPR single-cycle, human Fab capture kit, Tau monomer analyte; mean ± range, n=2. As for the experimental part:
Affinity of the humanized antibody variants was measured at 25° C. using a Biacore T200 instrument, the GE Biacore human FAb capture kit, and a CM5 Series S chip. Antibodies were diluted to 1 μg/ml in HBSP (10 mM HEPES pH7.4, 150 mM NaCl, 0.05% Tween 20) and captured at a flow rate of 10 μl/min for 180 seconds. Kinetic data were collected for human Tau monomer injected at 1.2, 3.7, 11, 33 and 100 nM in HBSP using the Single Cycle Kinetics methodology and a flow rate of 30 μl/min. Each concentration of Tau monomer was injected for a period of 3 minutes and dissociation was monitored for ten minutes. Between cycles, the surface was regenerated with two sequential one-minute injections of 10 mM glycine pH2.1. Data was fit to a 1:1 binding model using BIAEvaluation software. Each antibody was analyzed twice within the experiment; data in Table 22 are shown as mean±range.

The target of assay [5] is T2, full-length human Tau (flTau) (human, UniProt P10636-8 1-441).
T2 construct: range 1-441; bought (SignalChem); also called human Tau-441
T2 sequence (P10636 other isoform, or with tags, fused parts or gaps limits assumed): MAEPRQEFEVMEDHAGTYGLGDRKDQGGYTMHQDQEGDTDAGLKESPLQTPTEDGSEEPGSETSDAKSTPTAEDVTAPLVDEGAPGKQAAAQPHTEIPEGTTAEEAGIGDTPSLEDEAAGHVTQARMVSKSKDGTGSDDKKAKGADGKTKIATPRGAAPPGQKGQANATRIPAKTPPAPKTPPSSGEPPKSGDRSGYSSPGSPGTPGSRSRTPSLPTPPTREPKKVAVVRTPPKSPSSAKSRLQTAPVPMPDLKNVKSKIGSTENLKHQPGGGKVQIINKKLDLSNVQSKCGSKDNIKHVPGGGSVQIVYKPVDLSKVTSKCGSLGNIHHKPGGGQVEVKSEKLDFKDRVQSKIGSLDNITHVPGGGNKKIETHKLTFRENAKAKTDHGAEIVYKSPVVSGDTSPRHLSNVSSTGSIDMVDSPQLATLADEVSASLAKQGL
Briefly: SPR, hybridoma Ab on anti-IgG chip, flTau analyte. As for the experimental part:
Affinity of non-purified antibodies in serum-free hybridoma supernatants was estimated by surface plasmon resonance using a Biacore T-100 instrument (GE Healthcare, United Kingdom). Antibodies were immobilized onto an anti-IgG biosensor chip, and flTau (SignalChem, Canada) was used as the target analyte. Kinetic analysis was done using a 1:1 Langmuir fit model.
For affinity measurements to flTau, antibodies were measured using SPR on a Biacore instrument, with the KDs determined. Biacore affinity measurements were done by immobilizing antibodies on an anti-IgG chip and using flTau as the target analyte.

Another assay deals with T3, MAPT(10-24) (human, also: biotinylated, site not given here).
T3 construct: also called Tau fragment 10-24
T3 peptide: VMEDHAGTYGLGDRK
Kind of assay: ELISA on Tau 15-mer peptides, O.D.; conditions of this panel not given.

In the next assay the target is T4, Tau fragment 1-15 (human, UniProt P10636-8 1-15).
T4 construct: range 1-15
T4 peptide (looked up): MAEPRQEFEVMEDHA
The description is as above.

A further assay has as its target T5, Tau fragment 37-51 (human, UniProt P10636-8 37-51).
T5 construct: range 37-51
T5 peptide (looked up): GDTDAGLKESPLQTP
The description is as above.

Another assay addresses T6, Tau fragment 28-42 (human, UniProt P10636-8 28-42, not fully specified).
T6 construct: range 28-42
T6 peptide (looked up): GYTMHQDQEGDTDAG
The assay is described as above.

Assay [6] has as its target T1, recombinant human Tau monomer, 2N4R …. Kind of assay: SPR, mIgG2a captured, Tau monomer analyte, 1:1 fit. The text has this: Antibody heavy and light chains were constructed via gene synthesis and subcloning of the resulting DNA into murine IgG2a (heavy chain) and murine kappa (light chain) mammalian expression vectors. Antibodies were expressed in CHO or 293T cells by transient co-transfection of the heavy chain and light chain plasmids and were purified with affinity resin MabSelectSure (GE Healthcare Life Sciences). Purified recombinant antibodies were screened for binding to Tau monomer protein on a Biacore T200 surface plasmon resonance instrument using a mouse IgG capture kit and a Series S CM5 chip. Antibodies in mIgG2a format diluted in 10 mM HEPES pH7.4, 150 mM NaCl, 0.05% Tween 20 (running buffer, HBSP) were captured for 30 or 45 seconds at a concentration of 1 μg/ml (antibodies 26C1, 94B2-C1, 52F6-F11.v1, 52F6-F11.v2, 11E10-B8, 55E7-F11, 125B1-H3, 123E9-A1, 30G1-B2, 66F5-A1, 89F4-A1, 93A8-D2 and 126F11-G11) or for 70 or 150 seconds at a concentration of 0.1 μg/ml (antibodies 19H6-F7, 3A4-H4, 54C1-H11 and 37D3-H9) using a flow rate of 10 μl/min. […] Association and dissociation times were monitored for 180-480 seconds and for 300-600 seconds respectively. Antibody 37D3-H9 was selected for further analysis due to the high affinity (Table 6) and the absence of NXS/T glycosylation motifs in the CDRs.

A further assay addresses T7, Tau fragment 19-33 (human, UniProt P10636-8 19-33, not fully specified).
T7 construct: range 19-33
T7 peptide (looked up): GLGDRKDQGGYTMHQ
Kind of assay: ELISA on Tau 15-mer peptides, O.D.; conditions of this panel not given.

Where a chain is given by its changes, count along the chain named. Where no end group is shown, it is not given here.

B1: hu94B2.v105 (94B2.HC1 + 94B2.LC13) (antibody, IgG1, V domains shown)
VH: EVQLVQSGAEVKKPGASVKVSCKASGYSLTGYTMNWVRQAPGQGLEWIGLISPYNGVTSYNQKFKGRATLTVDKSTSTAYLELSSLRSEDTAVYYCARQGAYWGQGTLVTVSS
VL: DIVMTQTPLSLPVTPGQPASISCKSSQSLLDSDGKTYLNWLLQKPGQSPQRLIYLVSKLDSGVPDRFSGSGSGTDFTLKISRVEAEDVGVYYCWQGTHFPWTFGQGTKVEIK
notes: also called hu94B2 HC1 + LC13
Turning to B1, the Kd in assay [1] came out at 4.1 nM. In assay [2], the Kd came out at 3.7 nM, the koff came to 0.0003 s⁻¹ and the kon turned out to be 80000 M⁻¹ s⁻¹.

B2: hu37D3-H9.v28.A4 hIgG1 (antibody, V domains shown)
VH: EVQLVESGGGLVQPGGSLRLSCAASGLIFRSYGMSWVRQAPGKGLEWVATINSGGTYTYYPDSVKGRFTISRDNSKNTLYLQMNSLRAEDTAVYYCANSYSGAMDYWGQGTLVTVSS
VL: DDVLTQTPLSLPVTPGQPASISCRSSQSIVHSNGNTYLEWYLQKPGQSPQLLIYKVSNRFSGVPDRFSGSGSGTDFTLKISRVEAEDVGVYYCFQGSLVPWTFGQGTKVEIK
notes: human IgG1, kappa
For B2, in [3], the Kd is 1.5 nM, the koff worked out at 0.0011 s⁻¹ and the kon was found to be 690000 M⁻¹ s⁻¹.

B3: hu37D3-H9.v1 hIgG4.S228P (antibody)
heavy: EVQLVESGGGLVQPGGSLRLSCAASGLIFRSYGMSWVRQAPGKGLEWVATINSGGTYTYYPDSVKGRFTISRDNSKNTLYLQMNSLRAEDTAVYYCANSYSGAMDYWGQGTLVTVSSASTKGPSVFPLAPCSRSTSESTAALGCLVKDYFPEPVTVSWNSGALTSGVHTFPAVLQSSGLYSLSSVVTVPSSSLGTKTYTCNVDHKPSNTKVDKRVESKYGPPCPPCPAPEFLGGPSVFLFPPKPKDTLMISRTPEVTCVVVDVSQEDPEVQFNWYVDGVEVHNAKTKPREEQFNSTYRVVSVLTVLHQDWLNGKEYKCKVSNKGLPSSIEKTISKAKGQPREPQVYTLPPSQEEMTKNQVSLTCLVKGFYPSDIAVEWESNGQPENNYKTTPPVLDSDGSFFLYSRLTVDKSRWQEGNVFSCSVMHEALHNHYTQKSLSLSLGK
light: EDQLTQSPSSLSASVGDRVTITCRSSQSIVHSNGNTYFEWYQQKPGKSPKLLIYKVSNRFSGVPSRFSGSGSGTDFTLTISSLQPEDFATYYCFQGSLVPWTFGQGTKVEIKRTVAAPSVFIFPPSDEQLKSGTASVVCLLNNFYPREAKVQWKVDNALQSGNSQESVTEQDSKDSTYSLSSTLTLSKADYEKHKVYACEVTHQGLSSPVTKSFNRGEC
notes: also called hu37D3.v1 hIgG4
For the molecule B3, in assay [3], the dissociation constant (Kd) was 2 nM, the off-rate constant (koff) is 0.0013 s⁻¹ and the kon turned out to be 670000 M⁻¹ s⁻¹. For the same molecule, in assay [4], the Kd was 2.3 nM, the dissociation rate constant (koff) is 0.001 s⁻¹ and the on-rate constant (kon) is 600000 M⁻¹ s⁻¹.

B4: 94B2-C1 (antibody, mouse IgG2a, V domains shown)
VH: EVQLQQSGPELVKPGASMKISCKASGYSLTGYTMNWVKQSHGKNLEWIGLISPYNGVTSYNQKFKGKATLTVDKSSNTAYMELLSLTFEDSAVYYCARQGAYWGQGTLVTVSA
VL: not shown
As for B4, the Kd in assay [5] came out at 1.9 nM; in assay [6] it was 6 nM. Also, the binding result with MAPT(10-24) was “binds”; in the assay with Tau fragment 1-15, “binds”; with Tau fragment 37-51, “no binding (tested: not given)”; with Tau fragment 28-42 it was “no binding (tested: not given)”. Also, in [6], the koff was 0.0003 s⁻¹. The kon in assay [6] was 50000 M⁻¹ s⁻¹.

B5: 54C1-H11 (antibody, mouse IgG2a, V domains shown)
VH: EVQLVESGGDLVKPGGSLKVSCVASGFTFRSYGMSWVRQTPDKRLDWVATISSGGNYTYYPDSVKGRFTISRDNAKNTLYLQMSSLKSEDTAMYYCASSYSGAMDYWGQGTSVTVSS
VL: DTVMTQSPLSLPVSLGDQASISCRSSQSIVHSNGNTYLEWYLQKPGQSPKLLIYTVSNRFSGVPDRFSGSGSGTDFTLKISRVEAEDLGVYYCFQGSHVPWTFGGGTKLEIK
B5: the Kd came to 1.5 nM in assay [5] and 0.6 nM in assay [6]. The binding result in the assay with Tau fragment 19-33 is “no binding (tested: not given)”; with MAPT(10-24), “binds”; in the assay with Tau fragment 1-15, “no binding (tested: not given)”; with Tau fragment 37-51, “no binding (tested: not given)”; with Tau fragment 28-42, “no binding (tested: not given)”. Besides, the koff in [6] was 0.0002 s⁻¹. Moreover, the kon in assay [6] amounted to 300000 M⁻¹ s⁻¹.

B6: 123E9-A1 (antibody, mouse IgG2a, V domains shown)
VH: EVQLQQSGPELVKPGASVKMSCKASGYTFTDYYMKWVKQSHGKSLEWIGDIDPNNGGTSYNQKFKGKATLTVDKSSSTAYMQLNSLTSEDSAVYYCARSAGFGDSFSFWGLGTLVTVSA
VL: B5 VL with T2V, V3L, S7T, T55K, V90F, W101P
As for B6, the Kd in assay [5] came out at 1.8 nM; in assay [6] it was 52 nM. The binding result is “binds” with Tau fragment 19-33; “no binding (tested: not given)” in the assay with MAPT(10-24); “no binding (tested: not given)” in the assay with Tau fragment 1-15; “no binding (tested: not given)” with Tau fragment 37-51; “binds” with Tau fragment 28-42. For the same molecule, in assay [6], the koff turned out to be 0.02 s⁻¹. The kon in [6] turned out to be 400000 M⁻¹ s⁻¹.
